{"source": "patent US20260234290A1", "about": "“Antibodies to Stat3 Decoy Oligonucleotide” (The Regents of the University of California, priority 2023, published 2026)", "molecules": {"B1": {"name": "SP1-B3: anti-CS3D Fab from RAPID sorting of round 4; VH SEQ ID NO: 3, VL SEQ ID NO: 4 (antibody, V domains shown)", "VH": "QVTLQQSGPGLVKPSQTLSLTCAISGDSVSSNSAAWNWIRQSPSRGLEWLGRTYYRSKWFTYYAASVKGRISINRDTSKNQFSLQLNSVTPDDTAVYFCARGSGGYIDHWGQGTLVTVSS", "VL": "QAVLTQPSSLSASPGASASLTCTLRSGINVDSYRIYWYQQKPGSPPQYLLRYKSDSDKQQGSGVPSRFSGSKDASANAGILLISGLQSEDEADYYCMIWHSSAVVFGGGTKLTVL"}}, "tested_on": "CS3D", "test": "BLI koff of purified Fabs from CS3D biopanning", "type": "binding", "description": "First, standard biopanning (FIG. 1) was performed with Ag immobilized magnetic beads. A total of six rounds were performed with increasing stringency of washes and decreasing amounts of Ag per round. Assuming strong enrichment occurred continuously throughout the campaign, 95 colonies were randomly picked each round 4-6 (285 clones total) for candidate hit screening.\nIn efforts to identify improved binders, BIAS was performed with identical clones picked previously that were randomly sequenced. […] Therefore, we hypothesized that strong growth/display propensity biases were a dominant factor during the campaign, leading primarily to the identification of low-affinity binders.\nFluorescent activated sorting was applied to round 4 as both the population percentage and the normalized MFI of the shoulder population are the highest (FIG. 7). The shoulder population (top ~4%) was sorted along with the majority population (bottom ~96%) and both populations were used to infect TG1 (E. coli) cells. […] BIAS hits of the top ~4% sorted population were sequenced, and a new candidate binder, SP1-B3, was identified, along with identical clones of previously identified low-affinity binders.\nAll buffers were filter sterilized with […] filters prior to preparing samples. Black 384 well microplates were used to set up BLI plates and streptavidin tips were purchased by Sartorius. Kinetic constants of Fabs were determined by Octet RED384 system with continuous shaking at 1000 rpm in RT. Prior to the experiment, biological tips (model name) were presoaked in buffer to allow for equilibration for 1 hour. Data were analyzed using 1:1 interaction model on the ForteBio data analysis software 12.0.\nFreshly transformed BL21 (DE3) E. coli single colony clones were picked and inoculated into 50 ml of 2×YT media containing 2% glucose and […] Ampicillin. Starter cultures were grown overnight at 37 °C with 200 rpm shaking. […]"}
{"molecule": "B1", "values": [{"measurement": "koff fold lower than the Fab with the highest koff", "result": "> 20", "unit": "fold"}, {"measurement": "koff fold lower than the previously identified Fab with the lowest koff", "result": "~ 3 fold"}, {"measurement": "koff", "setting": "measured at 2 μM Fab", "result": 0.0211, "unit": "s⁻¹"}]}
